Read-outs that look alike come from different tables or passages of the source.
How the values were obtained:
[1] = target: T1, 6×His-tagged human LILRB2 ECD recombinant protein (human, UniProt Q8N423 22-458, limits assumed); test: Octet tandem binning on captured 6×His LILRB2 ECD; competitor (Ab1) 043c
T1 construct: Bought protein; not shown: 6×His-tag

[2] = target: T2, Human LILRB2 stably expressed on EL4 cells (EL4/LILRB2) (human, UniProt Q8N423 22-597); test: Competitive FACS: EL4/LILRB2 cells preincubated with 10 ug/mL antibody, then ANGPTL7 added; inhibition of the ligand's binding to the cells [panel ANGPTL7]
T2 construct: also called EL4-LILRB2 cells; cell membrane human LILRB2
T2 sequence (Q8N423 22-597 limits assumed): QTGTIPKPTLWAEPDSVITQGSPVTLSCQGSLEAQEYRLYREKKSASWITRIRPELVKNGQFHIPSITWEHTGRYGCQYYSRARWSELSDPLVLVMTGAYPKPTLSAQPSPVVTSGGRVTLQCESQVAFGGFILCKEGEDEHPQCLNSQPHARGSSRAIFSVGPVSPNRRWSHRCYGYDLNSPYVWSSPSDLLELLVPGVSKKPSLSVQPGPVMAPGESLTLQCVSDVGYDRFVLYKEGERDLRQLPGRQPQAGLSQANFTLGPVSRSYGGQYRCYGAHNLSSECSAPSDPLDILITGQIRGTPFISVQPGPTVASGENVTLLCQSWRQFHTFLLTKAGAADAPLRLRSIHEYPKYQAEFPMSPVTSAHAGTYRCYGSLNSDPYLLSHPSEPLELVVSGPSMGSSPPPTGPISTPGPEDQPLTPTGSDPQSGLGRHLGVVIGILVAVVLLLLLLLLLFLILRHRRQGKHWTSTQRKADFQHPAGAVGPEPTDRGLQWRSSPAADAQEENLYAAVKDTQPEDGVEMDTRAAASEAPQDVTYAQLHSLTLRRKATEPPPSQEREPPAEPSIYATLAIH
Protocol: (§1) The blocking activities were determined by quantitating the blockade of the ligands binding to EL4/LILRB2 cells.

[3] = target: T2, Human LILRB2 stably expressed on EL4 …; test: competitive FACS, blockade of HLA-G binding to LILRB2 on cells
Protocol: as §1

[4] = target: T3, Human LILRA4 ECD recombinant protein with 6×His-tag (human, UniProt P59901 24-446); test: ELISA: plate coated with LILRA4 ECD recombinant protein [continued) D]
T3 construct: range 1-446; Bought protein; not shown: 6×His-tag
T3 sequence (P59901 24-446 limits assumed): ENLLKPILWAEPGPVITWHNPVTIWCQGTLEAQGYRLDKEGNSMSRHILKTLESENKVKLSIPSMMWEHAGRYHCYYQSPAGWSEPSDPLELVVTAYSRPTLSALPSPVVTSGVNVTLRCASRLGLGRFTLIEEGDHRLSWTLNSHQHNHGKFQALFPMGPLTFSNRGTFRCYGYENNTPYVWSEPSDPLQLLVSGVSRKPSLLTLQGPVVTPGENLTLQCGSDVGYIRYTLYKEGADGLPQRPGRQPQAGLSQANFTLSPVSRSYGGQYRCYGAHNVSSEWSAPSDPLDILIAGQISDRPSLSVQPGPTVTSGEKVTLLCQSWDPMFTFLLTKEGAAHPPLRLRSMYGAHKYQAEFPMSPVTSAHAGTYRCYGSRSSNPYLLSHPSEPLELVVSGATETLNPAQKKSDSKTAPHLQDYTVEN

[5] = target: T4, Cell membrane human LILRB2 on human primary monocytes from healthy donors (human, UniProt Q8N423 22-597); test: cell-based or functional assay
T4 sequence (Q8N423 22-597): as the sequence (Q8N423 22-597 limits assumed) above

[6] = target: T2, Human LILRB2 stably expressed on EL4 …; test: FACS on EL4/LILRB2 cells
[7] = target: T2, Human LILRB2 stably expressed on EL4 …; test: competitive FACS on EL4/LILRB2 cells, blockade of HLA-G binding
Protocol: as §1

[8] = target: T4, Cell membrane human LILRB2 on human …; test: cell-based or functional assay; remark: listed apart in the source
[9] = target: T5, Human LILRB1 ECD recombinant protein with 6×His-tag (human, UniProt Q8NHL6 24-458, limits assumed); test: ELISA: plate coated with LILRB1 ECD recombinant protein, antibody at 0.5 ug/mL (method of example 3.2.1); mean OD450 printed over the bar [continued) F]
T5 construct: Bought protein; not shown: 6×His-tag
T5 sequence (Q8NHL6 24-458 limits assumed): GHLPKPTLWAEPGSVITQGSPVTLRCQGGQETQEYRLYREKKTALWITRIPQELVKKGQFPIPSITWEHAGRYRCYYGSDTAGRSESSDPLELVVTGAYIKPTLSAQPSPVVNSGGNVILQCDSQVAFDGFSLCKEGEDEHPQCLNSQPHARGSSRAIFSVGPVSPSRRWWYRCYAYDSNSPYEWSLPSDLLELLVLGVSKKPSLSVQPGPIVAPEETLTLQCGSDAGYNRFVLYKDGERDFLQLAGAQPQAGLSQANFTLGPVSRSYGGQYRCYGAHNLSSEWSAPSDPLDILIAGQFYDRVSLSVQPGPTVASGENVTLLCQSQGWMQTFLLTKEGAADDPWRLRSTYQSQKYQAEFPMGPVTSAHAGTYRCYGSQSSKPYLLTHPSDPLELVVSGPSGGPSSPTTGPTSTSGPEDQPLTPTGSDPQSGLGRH

[10] = target: T4, Cell membrane human LILRB2 on human …; test: FACS on human primary monocytes, Donor #1045
[11] = target: T1, 6×His-tagged human LILRB2 ECD …; test: Octet tandem binning on captured 6×His LILRB2 ECD; competitor (Ab1) 1E1
Protocol: Briefly, the HIS1K sensors were hydrolyzed for 10 minutes followed by capture of 6×His-tagged human LILRB2 ECD recombinant protein to 0.3 nm. The LILRB2 captured sensors were then exposed to Ab1 and Ab2 in tandem or Ab2 directly. The binding signals of Ab2 to LILRB2 under different conditions were detected respectively. Finally, the relative binding signals of Ab2 in tandem were calculated by normalization. High relative binding signals represent low competition between Ab2 and Ab1 for binding antigen. Likewise, low relative association signals represent high competition between Ab2 and Ab1.

[12] = target: T2, Human LILRB2 stably expressed on EL4 …; test: FACS on EL4/LILRB2 cells; remark: listed apart in the source
[13] = target: T6, Human LILRB5 ECD recombinant protein with 6×His-tag (human, UniProt O75023 24-458, limits assumed); test: ELISA: plate coated with LILRB5 ECD recombinant protein [continued) I]
T6 construct: Bought protein; not shown: 6×His-tag
T6 sequence (O75023 24-458 limits assumed): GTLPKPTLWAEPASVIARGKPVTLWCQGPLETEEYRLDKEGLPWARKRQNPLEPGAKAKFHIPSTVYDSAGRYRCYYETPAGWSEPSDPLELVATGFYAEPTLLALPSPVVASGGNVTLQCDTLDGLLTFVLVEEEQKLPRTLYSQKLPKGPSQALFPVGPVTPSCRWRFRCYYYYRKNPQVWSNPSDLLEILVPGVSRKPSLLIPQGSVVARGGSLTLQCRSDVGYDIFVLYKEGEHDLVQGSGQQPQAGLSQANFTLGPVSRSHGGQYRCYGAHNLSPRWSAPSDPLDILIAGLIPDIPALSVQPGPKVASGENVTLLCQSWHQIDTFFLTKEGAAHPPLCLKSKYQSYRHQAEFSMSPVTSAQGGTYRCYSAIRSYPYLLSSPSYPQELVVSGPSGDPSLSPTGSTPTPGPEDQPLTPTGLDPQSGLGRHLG

[14] = target: T3, Human LILRA4 ECD recombinant protein …; test: ELISA: plate coated with LILRA4 ECD recombinant protein, antibody at 0.5 ug/mL (method of example 3.2.1); mean OD450 printed over the bar [continued) D]
Protocol: Briefly, 0.5 μg/mL anti-LILRB2 antibodies were incubated in human LILRB2 ECD recombinant protein-coated ELISA plate at 37° C. for 1 hour. After washing, horseradish peroxidase (HRP) labeled detection antibody was added and incubated at 37° C. for 1 hour. Color development was conducted by the addition of 100 μl/well of TMB (3,3′,5,5′-Tetramethylbenzidine) solution. After incubation at room temperature (RT) for 10-15 minutes, the reaction was stopped by adding 100 μl 1N HCl. Then the plates were read immediately using plate reader for optical density at 450 nm.

[15] = target: T2, Human LILRB2 stably expressed on EL4 …; test: Competitive FACS: EL4/LILRB2 cells preincubated with 10 ug/mL antibody, then HLA-A2 complex added; inhibition of the ligand's binding to the cells [panel HLA-A2]
Protocol: as §1

[16] = target: T4, Cell membrane human LILRB2 on human …; test: FACS on human primary monocytes, Donor #6004
[17] = target: T1, 6×His-tagged human LILRB2 ECD …; test: Octet, 1:1 model; column printed as 'ka (1/Ms)', heads of c4 and c5 are swapped

T1 sequence (Q8N423 22-458 limits assumed): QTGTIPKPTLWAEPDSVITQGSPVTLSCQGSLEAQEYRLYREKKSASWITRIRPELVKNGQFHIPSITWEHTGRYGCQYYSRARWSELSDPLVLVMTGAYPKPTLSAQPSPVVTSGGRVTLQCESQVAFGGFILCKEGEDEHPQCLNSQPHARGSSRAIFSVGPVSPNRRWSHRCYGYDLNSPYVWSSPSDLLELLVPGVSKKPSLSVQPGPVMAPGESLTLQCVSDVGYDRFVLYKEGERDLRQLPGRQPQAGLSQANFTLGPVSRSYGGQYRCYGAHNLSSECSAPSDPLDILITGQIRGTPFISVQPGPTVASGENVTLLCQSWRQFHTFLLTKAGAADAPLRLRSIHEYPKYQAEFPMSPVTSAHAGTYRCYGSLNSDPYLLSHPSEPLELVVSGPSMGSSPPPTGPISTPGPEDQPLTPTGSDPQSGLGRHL

B1: 043c (antibody, V domains shown)
VH: QVQLQQSGAELAKPGASVKLSCKASGYTFTSYWMYWVKQRPGQGLEWIGHINPSSGYTKYNQKFKDKATLTADKSSSTAYMQLSSLTYEDSAVYYCARDPNWDNYWGQGTTLTVSS
VL: DIVMTQSHKFMSTSVGDRVSITCKASQDVSIAVAWYQQKPGQSPKLLIYSASYRYTGVPDRFTGSGSGTDFTFTISSVQAEDLAVYYCQQHYSTPYTFGGGTKLEIK
notes: Human IgG4 chimeric antibody with S228P mutation at the Fc region; also called chimeric antibody 043c; parental antibody 043c
For B1, the “relative binding signal of Ab2 in tandem” value [1] was 3%, the “Inhibition (%)” value [2] was 89% and the IC50 [3] was 0.11 nM. The “TOP Blocking (%)” value [3] was 100%, the binding result [4] was “no binding (tested: 0.5 ug/mL)” and the “Relative cytokine/chemokine level, B7-H1/PD-L1 (M2-T coculture 1:1, Luminex)” value [5] was 1.8 fold of Medium. The “Relative cytokine/chemokine level, CCL3/MIP-1 alpha (M2-T coculture 1:1, Luminex)” value [5] was 1.3 fold of Medium, the “Relative cytokine/chemokine level, CCL4/MIP-1 beta (M2-T coculture 1:1, Luminex)” value [5] was 2.4 fold of Medium and the “Relative cytokine/chemokine level, CCL5/RANTES (M2-T coculture 1:1, Luminex)” value [5] was 3.8 fold of Medium. For the same binder, the “Relative cytokine/chemokine level, CCL19/MIP-3 beta (M2-T coculture 1:1, Luminex)” value [5] was 0.3 fold of Medium, the “Relative cytokine/chemokine level, CCL20/MIP-3 alpha (M2-T coculture 1:1, Luminex)” value [5] was 2.2 fold of Medium and the “Relative cytokine/chemokine level, CXCL2/GRO beta (M2-T coculture 1:1, Luminex)” value [5] was 0.4 fold of Medium. The “Relative cytokine/chemokine level, FGF-basic (M2-T coculture 1:1, Luminex)” value [5] was 1.3 fold of Medium, the “Relative cytokine/chemokine level, G-CSF (M2-T coculture 1:1, Luminex)” value [5] was 2.3 fold of Medium and the “Relative cytokine/chemokine level, GM-CSF (M2-T coculture 1:1, Luminex)” value [5] was 1.6 fold of Medium. The “Relative cytokine/chemokine level, Granzyme B (M2-T coculture 1:1, Luminex)” value [5] was 7.6 fold of Medium, the “Relative cytokine/chemokine level, IFN-alpha (M2-T coculture 1:1, Luminex)” value [5] was 2.2 fold of Medium and the “Relative cytokine/chemokine level, IFN-gamma (M2-T coculture 1:1, Luminex)” value [5] was 4.1 fold of Medium. For the same binder, the “Relative cytokine/chemokine level, IL-1beta/IL-1F2 (M2-T coculture 1:1, Luminex)” value [5] was 1.9 fold of Medium, the “Relative cytokine/chemokine level, IL-2 (M2-T coculture 1:1, Luminex)” value [5] was 17.8 fold of Medium and the “Relative cytokine/chemokine level, IL-3 (M2-T coculture 1:1, Luminex)” value [5] was 3.6 fold of Medium. The “Relative cytokine/chemokine level, IL-4 (M2-T coculture 1:1, Luminex)” value [5] was 1.6 fold of Medium, the “Relative cytokine/chemokine level, IL-5 (M2-T coculture 1:1, Luminex)” value [5] was 2.3 fold of Medium and the “Relative cytokine/chemokine level, IL-6 (M2-T coculture 1:1, Luminex)” value [5] was 0.2 fold of Medium. The “Relative cytokine/chemokine level, IL-13 (M2-T coculture 1:1, Luminex)” value [5] was 1.8 fold of Medium, the “Relative cytokine/chemokine level, IL-15 (M2-T coculture 1:1, Luminex)” value [5] was 1.8 fold of Medium and the “Relative cytokine/chemokine level, PDGF-AA (M2-T coculture 1:1, Luminex)” value [5] was 4.3 fold of Medium. For the same binder, the “Relative cytokine/chemokine level, PDGF-AB/BB (M2-T coculture 1:1, Luminex)” value [5] was 1.5 fold of Medium, the “Relative cytokine/chemokine level, TGF-alpha (M2-T coculture 1:1, Luminex)” value [5] was 3.2 fold of Medium and the “Relative cytokine/chemokine level, TNF-alpha (M2-T coculture 1:1, Luminex)” value [5] was 4.8 fold of Medium. The “Relative cytokine/chemokine level, VEGF (M2-T coculture 1:1, Luminex)” value [5] was 0.3 fold of Medium, the EC50 [6] was 0.73 nM and the IC50 [7] was 0.1 nM. The “TOP Blocking (%)” value [7] was 100%, the “Relative cytokine level, CCL2/JE/MCP-1 (DC differentiation assay, Soluble antibody, Luminex)” value [8] was 2.36 fold of hIgG4 iso and the “Relative cytokine level, CCL3/MIP-1 alpha (DC differentiation assay, Pre-coat antibody, Luminex)” value [8] was > 5 fold of hIgG4 iso. The “Relative cytokine level, CCL3/MIP-1 alpha (DC differentiation assay, Soluble antibody, Luminex)” value [8] was 5.79 fold of hIgG4 iso, the “Relative cytokine level, CCL20/MIP-3 alpha (DC differentiation assay, Pre-coat antibody, Luminex)” value [8] was 1.75 fold of hIgG4 iso and the “Relative cytokine level, CCL20/MIP-3 alpha (DC differentiation assay, Soluble antibody, Luminex)” value [8] was 1.88 fold of hIgG4 iso. The “Relative cytokine level, CCL22/MDC (DC differentiation assay, Pre-coat antibody, Luminex)” value [8] was 2.61 fold of hIgG4 iso, the “Relative cytokine level, CCL22/MDC (DC differentiation assay, Soluble antibody, Luminex)” value [8] was 2.03 fold of hIgG4 iso and the “Relative cytokine level, CCL23/MPIF-1 (DC differentiation assay, Pre-coat antibody, Luminex)” value [8] was 0.48 fold of hIgG4 iso. For the same binder, the “Relative cytokine level, CCL23/MPIF-1 (DC differentiation assay, Soluble antibody, Luminex)” value [8] was 0.73 fold of hIgG4 iso, the “Relative cytokine level, IFN-beta (DC differentiation assay, Pre-coat antibody, Luminex)” value [8] was 3.39 fold of hIgG4 iso and the “Relative cytokine level, IFN-beta (DC differentiation assay, Soluble antibody, Luminex)” value [8] was 7.24 fold of hIgG4 iso. The “Relative cytokine level, IL6 (DC differentiation assay, Soluble antibody, Luminex)” value [8] was 1.93 fold of hIgG4 iso, the “Relative cytokine level, IL-1 alpha/IL-1F1 (DC differentiation assay, Pre-coat antibody, Luminex)” value [8] was 1.71 fold of hIgG4 iso and the “Relative cytokine level, IL-1 alpha/IL-1F1 (DC differentiation assay, Soluble antibody, Luminex)” value [8] was 1.71 fold of hIgG4 iso. For the same binder, the “Relative cytokine level, IL-6 (DC differentiation assay, Pre-coat antibody, Luminex)” value [8] was 1.61 fold of hIgG4 iso, the “Relative cytokine level, IL-8/CXCL8 (DC differentiation assay, Soluble antibody, Luminex)” value [8] was 1.65 fold of hIgG4 iso and the “Relative cytokine level, IL-10 (DC differentiation assay, Pre-coat antibody, Luminex)” value [8] was 2.16 fold of hIgG4 iso. The “Relative cytokine level, IL-10 (DC differentiation assay, Soluble antibody, Luminex)” value [8] was 1.69 fold of hIgG4 iso, the “Relative cytokine level, TNFα (DC differentiation assay, Pre-coat antibody, Luminex)” value [8] was 5.38 fold of hIgG4 iso and the “Relative cytokine level, TNFα (DC differentiation assay, Soluble antibody, Luminex)” value [8] was 4.71 fold of hIgG4 iso. The “Relative cytokine level, VEGF (DC differentiation assay, Pre-coat antibody, Luminex)” value [8] was 1.67 fold of hIgG4 iso, the “Relative cytokine level, VEGF (DC differentiation assay, Soluble antibody, Luminex)” value [8] was 1.43 fold of hIgG4 iso and the OD450 [9] was 0.08. The EC50 [10] was 0.32 nM, the “relative binding signal of Ab2 in tandem” value [11] was 108% and the EC50 [12] was 0.45 nM. The “TOP MFI” value [12] was 45300 MFI, the binding result [13] was “no binding (tested: 0.5 ug/mL)” and the OD450 [14] was 0.13. The “Inhibition (%)” value [15] was 100%, the EC50 [16] was 0.29 nM and the koff [17] was 0.00119 s⁻¹.

B2: 1E1 (antibody, V domains shown)
VH: QVQLQQWGAGLLKPSETLSLTCAVYGGSFSGYYWSWIRQPPGKGLEWIGEINHSGSTNYNPSLKSRVTISVDTSKNQFSLKLSSVTAADTAVYYCARLPTRWVTTRYFDLWGRGTLVTVSS
VL: QSVLTQPPSVSGAPGQRVTISCTGSSSNIGAGYDVHWYQQLPGTAPKLLIYGNSNRPSGVPDRFSVSKSGASASLAITGLQAEDEADYYCQSFDNSLSAYVFGGGTQLTVL
notes: Human IgG4 monoclonal antibody with S228P in the constant region, made according to US 2018/0298096 A1; also called benchmark antibody 1E1
B2 was tested, and the “relative binding signal of Ab2 in tandem” value [1] was 100%, the “Inhibition (%)” value [2] was 96% and the binding result [4] was “no binding (tested: 0.5 ug/mL)”. The IC50 [7] was 0.32 nM, the “TOP Blocking (%)” value [7] was 100% and the OD450 [9] was 0.08. The EC50 [10] was 0.84 nM, the “relative binding signal of Ab2 in tandem” value [11] was 3% and the binding result [13] was “no binding (tested: 0.5 ug/mL)”. The OD450 [14] was 0.12, the “Inhibition (%)” value [15] was 99% and the EC50 [16] was 0.91 nM.

B3: J-19 (antibody, V domains shown)
VH: QVTLKESGPGILQPSHTLSLTCSFSGFSLNTYAMGVSWIRQPSGKGLEWLASIWWNGNKYNNPSLKSRLTVSKDTSNNQAFLKVTSVDTADTATYYCAHSRIIRFTDYVMDAWGQGASVTVSS
VL: DIQMTQSPASLSTFLGEPVTIECRASEDIYNDLAWYQQKPGKSPQLLIYNANSLHTGVPSRFSGSGSGTQYSLKINSLQSEDVASYFCQQYYDYPLTFGSGTKLEIK
notes: Human IgG4 monoclonal antibody with S228P in the constant region, made according to WO 2019/126514 A2; also called benchmark antibody J-19
In the case of B3, the “relative binding signal of Ab2 in tandem” value [1] is reported as 96%, the “Inhibition (%)” value [2] is reported as 97% and the IC50 [3] is reported as 0.07 nM. For the same binder, the “TOP Blocking (%)” value [3] was 100%, the binding result [4] was “no binding (tested: 0.5 ug/mL)” and the IC50 [7] was 0.04 nM. The “TOP Blocking (%)” value [7] was 100%, the OD450 [9] was 0.1 and the “relative binding signal of Ab2 in tandem” value [11] was 32%. For the same binder, the binding result [13] was “no binding (tested: 0.5 ug/mL)”, the OD450 [14] was 0.17 and the “Inhibition (%)” value [15] was 100%.

From patent US20260008847A1 (ELPISCIENCE SUZHOU BIOPHARMA, published 2026)
